# T1: seq129.1_CID-SmBiT
# T1 chain: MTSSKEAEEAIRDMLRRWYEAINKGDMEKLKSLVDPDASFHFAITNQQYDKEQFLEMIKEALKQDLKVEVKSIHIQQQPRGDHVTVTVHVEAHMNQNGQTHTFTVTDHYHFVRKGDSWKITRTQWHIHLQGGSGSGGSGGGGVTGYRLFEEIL
# B1: mini11-LgBiT (designed binder)
# chain: MSSASTLVKTFSLCMEALSIEDPEKREEVYEKARKLAEENNDPAALFLVESIKKQHEQSGGSGGMVFTLEDFVGDWEQTAAYNLDQVLEQGGVSSLLQNLAVSVTPIQRIVRSGENALKIDIHVIIPYEGLSADQMAQIEEVFKVVYPVDDHHFKVILPYGTLVIDGVTPNMLNYFGRPYEGIAVFDGKKITVTGTLWNGNKIIDERLITPDGSMLFRVTINS
# B2: mini11: designed 3-helix bundle minibinder that binds seq129.1_CID only with cortisol (protein)
# chain: MSSASTLVKTFSLCMEALSIEDPEKREEVYEKARKLAEENNDPAALFLVESIKKQHEQSSSLE
# Experiments:
# [1] = test system: seq129.1_CID-SmBiT and mini11-LgBiT; assay: Cortisol sensing with NanoBiT fusions (luminescence on cortisol titration); type: biochemical; details: seq129.1_CID-SmBiT and mini11-LgBiT mixed equimolar, cortisol 2-3 hours, DTZ 25 μM; estimated; read-out: EC50 of luminescent signal on cortisol titration
# Excerpt: FIG. 2. Design and characterization of a cortisol-dependent heterodimer. (A) Design pipeline for cortisol-induced heterodimerization. Starting from a model of seq129.1_CID in complex with cortisol (top), we used RIFdock™ and a library of designed 3-helix bundles to generate thousands of putative ternary complexes (middle), and amino acid sequences encoding these complexes were generated with FastDesign™ and ProteinMPNN™ (bottom). Zoom-in of the designed CID ternary complex (seq129.1_CID, mini11, and cortisol) (bottom panel). (B) Size-exclusion chromatography traces of an equimolar solution of seq129.1 and mini11 (1 μM) in the presence or absence of cortisol (10 μM). (C) Schematic diagram of the designed cortisol-induced heterodimerization coupled with a binary split luciferase to create a biosensor. […]
# As a proof-of-concept for the application of the designed CID as a sensor for cortisol, we genetically fused seq129.1_CID and mini11 to the SmBiT and LgBiT components of the NanoBiT™ system, respectively, which reconstitutes NanoBiT™ and generates luminescence when brought in close proximity by a molecular interaction 18.
# seq129.1_CID and mini11 were genetically fused to SmBiT and LgBiT, respectively, and ordered as eblocks from IDT. […] Immediately after adding DTZ, the luminescent signal was measured on a Neo2 plate reader. […]
# seq129.1_CID-SmBiT = biological target: T1, seq129.1_CID-SmBiT; assay: cell-based or functional assay
# seq129.1_CID = assay: Native mass spectrometry of the ternary complex; type: binding; details: cortisol and mini11
molecule,measurement,setting,value
C[C@]12CCC(=O)C=C1CC[C@@H]1[C@@H]2[C@@H](O)C[C@@]2(C)[C@H]1CC[C@]2(O)C(=O)CO [cortisol],EC50,[1],25 nM
B1,luminescent signal of reconstituted NanoBiT on titration with cortisol (the EC50 is a cortisol concentration),seq129.1_CID-SmBiT,25 nM
B2,ternary complex by native mass spectrometry,seq129.1_CID,revealed a molecular weight for the seq129.1_CID-cortisol-mini11 ternary complex

# — patent US20250154213A1, “De Novo Designed Cortisol Biosensor” (University of Washington, priority 2023, published 2025)
